This series deals with MS2 coat protein. Briefly: apparent KD of MS2 coat protein; designed switch direction (-1 OFF switch, 1 ON switch): 1; higher = weaker reporter binding. In a few lines:
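SNAP-549-labelled MS2 coat protein was titrated, doubling from 0.7 or 1.5 nM to 3 µM, over designed RNA switches transcribed on Illumina chips by stalled E. coli RNA polymerase. Runs were done without input, with 200 uM small-molecule ligand, or with an oligonucleotide input. Apparent KD is the per-design median over clusters of curve-fitted normalised fluorescence.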

Setting [1] is: Eterna round: R95, input ligand: FMN 200 uM.
The mark [2] stands for this setting: Eterna round: R95, input ligand: microRNA oligo, concentration not stated.
The mark [3] stands for this setting: Eterna round: R95, input ligand: none.
[4] abbreviates: input ligand: microRNA oligo, concentration not stated.

With “AGAGUGUAUCCACAGGAUAUGCGAGCUGACACAUGAGGAUCACCCAUGUAGUCCUAAAGGGCUGAGCAGAAGGGUGGUAAAGCUC [Raesvelave] (puzzle: Same State 2)”, the “apparent KD of MS2 coat protein” value was determined as 12.9 nM under setting [1], 44.2 nM under setting [2] and 53.6 nM under setting [3].
On to “AGAUGUUAAUUAGGAUAUGGACACAUGAGGAUCACCCAUGUAACGAAGAUACGAUGUGGUCAAGUCUAGAAGGGAUCGCUAACA [SameState NG2 #74] (Eterna round: R96, puzzle: Same State NG 2)”, for which the “apparent KD of MS2 coat protein” value reads like this: (input ligand: FMN 200 uM) 38.1 nM; under setting [4], 26.9 nM; (input ligand: none) 36.6 nM.
“AGAUGUUAAUUAGGAUAUGGGCACAUGAGGAUCACCCAUGUAACGUAGAUACGAUGUGGUCAAGUCUAGAAGGGAUAGCUAACA [SameState NG2 #77] (Eterna round: R96, puzzle: Same State NG 2)”: the “apparent KD of MS2 coat protein” value (input ligand: FMN 200 uM) was 72.5 nM, the “apparent KD of MS2 coat protein” value under setting [4] worked out at 59.3 nM and the “apparent KD of MS2 coat protein” value (input ligand: none) came out at 70.6 nM.
The like results for “AGCAGAGAAAUAGGAUAUGGCUGAGACAUGACGGCGGUACAUGAGGAUCACCCAUGUCCGCAAAGCCAGAAGGGUUUUGAAUGU [Ticecexe] (Eterna round: R96, puzzle: Same State NG 2)” were, in that order, 13.7 nM, 16.5 nM and 33.4 nM.
In the same order, the values of “AGCCGAGACUGAGGAUAUUUGUAUCUACAUGAGGAUCACCCAUGUAGCAACACGUGGUAGUGAUCGAAGAAGGCAGCUCGGCGC [MOD2 of Omei's SS(NG)2 Cv2] (Eterna round: R96, puzzle: Same State NG 2)” are 54 nM, 282 nM and 291 nM.
In the case of “AGCCUGAGUCGAGGAUAUUAUGGAUCAAUUAAUACAUGAGGAUCACCCAUGUAAUUAAUUUAACAUGAGAAGGUGACUCAGGCA [SSNG2/10-B1] (Eterna round: R96, puzzle: Same State NG 2)”, under setting [4], the “apparent KD of MS2 coat protein” value worked out at 8.66 nM.
For “AGCGAGAUAGGCAAGGAUAUGCUGGGUUUCACAUGAGGAUCACCCAUGUCAUUGGUUAUGUCCGAGCAGAAGGUGCAUUCUCUUU [ak bound state multiloop solution 2] (puzzle: Same State 2)”, under setting [2], the “apparent KD of MS2 coat protein” value amounted to 250 nM.
With “AGCUAAAACGAAGGAUAUACAAACAUGAGGAUCACCCAUGUAUACAUGAUUUAUUGUGAUCACAUGUAGAAGGUCGUACUAACA [SameState NG2 #19] (Eterna round: R96, puzzle: Same State NG 2)”, the “apparent KD of MS2 coat protein” value under setting [4] worked out at 633 nM.
Still for that read-out and setting: then “AGCUAUUAAUCAGGAUAUAGGGACAUGAGGAUCACCCAUGUGUACAUGAUAAAAUGUGAUCACGUCUAGAAGGGAUUACUAACA [SameState NG2 #39] (Eterna round: R96, puzzle: Same State NG 2)”, with 52.5 nM; and “AGCUAUUACGAAGGAUAUUCUGACAUGAGGAUCACCCAUGUCUUCAUGAUUUAUUGUGAUCACAUGAAGAAGGUCGUACUAACA [SameState NG2 #24] (Eterna round: R96, puzzle: Same State NG 2)”, with 140 nM.
As to “AGGACGAGCACAGGAUAUCCGUGGAACAGACACGGAGAAGGGUGAAGUCAUGGAAAGAAAAGACAUGAGGAUCACCCAUGUAAA [Eszaonin] (Eterna round: R96, puzzle: Same State NG 1)”, the “apparent KD of MS2 coat protein” value by setting is: (input ligand: FMN 200 uM) 132 nM; under setting [4], 61.3 nM; (input ligand: none) 310 nM.
The like results for “AGGCCACCGGAAGGAUAUGGCACCUUAUUGGUGCCAGAAGGUCCAACAUGAGGAUCACCCAUGUGGGUGGGUUCUAAUGAACAU [Fiskers NG1 - 2] (Eterna round: R96, puzzle: Same State NG 1)” were, in that order, 76.5 nM, 37.6 nM and 47.9 nM.
As to “AGGGAGGAGGCUGAGGAUAUCGUAAGGAGGACAUGAGGAUCACCCAUGUGUAUAGGAUUGGAGGACGAGAAGGCAGAGGAGUGGG [JR_SS2_Sub050] (puzzle: Same State 2)”, the “apparent KD of MS2 coat protein” value came to 41.1 nM under setting [1], 26.6 nM under setting [2] and 28.9 nM under setting [3].
With “AGGGUCGUGCUAGGAUAUCUAGGAUAUGGACGAGGAUUACCCGAGCAGCAUUAGCGCACCAGAGGAGAGAAGGAGCGUGAUGCG [pwkr ssNG2 2F5 2FMN.10] (Eterna round: R96, puzzle: Same State NG 2)”, the “apparent KD of MS2 coat protein” value runs as follows: (input ligand: FMN 200 uM) 329 nM; under setting [4], 2.76 nM; (input ligand: none) 63.7 nM.
In the same order, the values of “AGUAGUGUAACAUGAGGAUCACCCAUGUAAGAAUAUGUAACCUAGGAUAUGGAGGUUAUGUUUGACCAGAAGGAGGAUUGUUUA [JR_SSNG3_Sub041] (Eterna round: R96, puzzle: Same State NG 3)” are 27 nM, 20.3 nM and 25.9 nM.
With “AGUCCAGCAUAAGCUGGACAAAAGCAUGUACAUGAGGAUCACCCAUGUUCAUGUACAAGCUUUUUGCUCGUCAAAAG [Mat - hsa-mir-208a - Mod of JL - 71] (puzzle: Sensor for hsa-mir-208a)”, the “apparent KD of MS2 coat protein” value worked out at 215 nM under setting [1], 22.6 nM under setting [2] and 297 nM under setting [3].

Source of the values: the supplement of paper PMC9170038.
